Biological target: the molecule itself
Test: SEC

B1: His6-eVP40 (Ebola virus matrix protein VP40) (natural protein)
chain: MRRVILPTAPPEYMEAIYPVRSNSTIARGGNSNTGFLTPESVNGDTPSNPLRPIADDTIDHASHTPGSVSSAFILEAMVNVISGPKVLMKQIPIWLPLGVADQKTYSFDSTTAAIMLASYTITHFGKATNPLVRVNRLGPGIPDHPLRLLRIGNQAFLQEFVLPPVQLPQYFTFDLTALKLITQPLPAATWTDDTPTGSNGALRPGISFHPKLRPILLPNKSGKKGNSADLTSPEKIQAIMTSLQDFKIVPIDPTKNIMGIEVPETLVHKLTGKKVTSKNGQPIIPVLLPKYIGLDPVAPGDLTMVITQDCDTCHSPASLPAVIEK
- stoichiometry N: 2
